Article PMC3887258

Key:
[1] = target: Human metapneumovirus matrix protein (M), untagged (human metapneumovirus, strain NL1-00); test: negative-stain electron microscopy, 2D class averages; free M in samples of 7.2 μM M incubated with 400 μM DOPC for 7 days at 37°C; 2% uranyl acetate
[2] = target: Human metapneumovirus matrix protein (M), untagged (human metapneumovirus, strain NL1-00); test: crystal structure; 2.8 Å, space group P3_(1); crystals from 20% PEG 6000, 100 mM Tris pH 8.0, 10 mM zinc chloride, 20°C; mixture of intact and proteolysed untagged M
[3] = target: Human metapneumovirus matrix protein (M), untagged (human metapneumovirus, strain NL1-00); test: SAXS; untagged M in 1 M NaCl buffer, or as 9:1 mixture with SUMO-3C-M in 1 M NDSB-201 buffer; 1 to 4 mg/ml; 20°C, BM29 ESRF; fitted with MD-based ensemble optimisation

Measured: stoichiometry N

Human metapneumovirus matrix protein (M), untagged (natural protein)
2: all assays above
